The target in test [1] is human FcRn (human FCGRT & B2M heterodimer) (human) (UniProt P55899). The experiment in a line: BLI; as a4 (FcRn on AR2G tips, pH 6), but fitted with a 1:1 binding model; not corrected for the molecular weight of the aggregates; apparent. In general terms: In BLI a coated tip is dipped into the sample, and binding shifts an interference pattern.
The target of test [2] is human FcγRI with a C-terminal AVI-tag and C-terminal His-tag (Sino Biological) (human) (UniProt P12314). As to the kind of experiment: SPR; Biacore T200, single-cycle kinetics; biotinylated FcγRI captured on a CAPchip, IgG1 injected at 0.06-5 nM; HBS-EP+; 37 °C; 1:1 kinetic model; KD observed. For orientation: In SPR one partner is held on a chip, and binding of the other changes the refractive index at the surface.

Test [3] has as its target human FcRn (human FCGRT & B2M heterodimer) (human) (UniProt P55899). The experiment in a line: BLI; Octet Red384; FcRn amine-coupled to AR2G tips; 320 nM IgG1 associated at pH 6 and dissociated at pH 7.2; fraction bound 5 s after the start of dissociation (response at 0 s = 100%).
Test [4] addresses human FcγRI with a C-terminal AVI-tag and C-terminal His-tag (Sino Biological) (human) (UniProt P12314). As to the kind of experiment: SPR; Biacore T200, single-cycle kinetics; biotinylated FcγRI captured on a CAPchip, IgG1 injected at 0.06-5 nM; HBS-EP+; 37 °C; 1:1 kinetic model; KD observed. This is another data set of the same source.
The target in test [5] is human FcRn (human FCGRT & B2M heterodimer) (human) (UniProt P55899). The experiment in a line: BLI; Octet Red384, multicycle kinetics; FcRn amine-coupled to AR2G tips, IgG1 2.5-80 nM; association and dissociation at pH 6 (50 mM phosphate, 150 mM NaCl, 0.1% Tween 20); heterogeneous ligand model; KD observed.
For test [6] the target is unchanged. The description is as above. This is another data set of the same source.

Read-outs that look alike come from different tables or passages of the source.

UniProt P12314, sequence (P12314 16-292): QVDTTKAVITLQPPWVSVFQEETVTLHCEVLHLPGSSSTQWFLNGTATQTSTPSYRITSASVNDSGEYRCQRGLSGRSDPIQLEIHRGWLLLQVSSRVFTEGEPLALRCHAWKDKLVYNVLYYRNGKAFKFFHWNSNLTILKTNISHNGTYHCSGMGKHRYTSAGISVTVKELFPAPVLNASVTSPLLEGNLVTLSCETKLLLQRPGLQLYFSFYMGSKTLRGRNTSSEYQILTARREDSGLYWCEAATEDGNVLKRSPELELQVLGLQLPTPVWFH
UniProt P55899, sequence (P55899 24-297, chain 1 of 2): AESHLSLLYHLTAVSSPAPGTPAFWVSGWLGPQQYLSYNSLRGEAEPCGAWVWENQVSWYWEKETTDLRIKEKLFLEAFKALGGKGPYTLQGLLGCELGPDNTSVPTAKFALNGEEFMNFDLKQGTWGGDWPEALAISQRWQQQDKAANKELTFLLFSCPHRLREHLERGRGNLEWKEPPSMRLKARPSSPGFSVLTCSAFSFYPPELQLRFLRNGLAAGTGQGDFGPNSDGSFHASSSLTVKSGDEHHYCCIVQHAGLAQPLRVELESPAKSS
UniProt P55899, sequence (P61769 21-119, chain 2 of 2, further chain): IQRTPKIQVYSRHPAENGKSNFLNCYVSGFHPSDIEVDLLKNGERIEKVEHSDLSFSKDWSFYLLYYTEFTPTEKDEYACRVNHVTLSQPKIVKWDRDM

Turning to “covalent oligomer fraction of IgG1 (DSS cross-linked, preparative SEC) (antibody)”, the Kd in test [1] amounted to 3 nM; in test [2] it was 0.07 nM. The fraction bound at neutral pH in test [3] is 17.7%.

Regarding “human IgG1 monoclonal antibody, reference sample”, the Kd in test [4] was 0.56 nM; in test [2] it was 0.66 nM; in test [5] it was 5.7 nM; in test [6] it was 6.3 nM. The maximum response in test [4] was 80 RU. Also, the fraction bound at neutral pH in test [3] turned out to be 7.5%.

The values are drawn from paper PMC5623700.
